Data taken from patent publication US20100254993A1 (Novartis, published 2010).
Substitutions are numbered along the chain they refer to.

T1: recombinant human interleukin-4 (human, UniProt P05112 25-153)
T1 construct: Recombinant human IL-4 applied in solution over antibody captured by anti-human IgG (BIAcore); also called rhIL-4; human IL-4
T1 sequence (looked up): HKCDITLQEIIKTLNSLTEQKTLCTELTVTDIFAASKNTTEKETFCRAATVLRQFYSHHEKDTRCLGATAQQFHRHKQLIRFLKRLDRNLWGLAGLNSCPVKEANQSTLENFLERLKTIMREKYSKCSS

B1: Example 3 antibody comprising SEQ ID NO:17 and SEQ ID NO:18 (antibody, human IgG1, V domains shown)
VH: QVQLVESGGGMVQPGRSLRLSCAASGFTLSSYGMHWVRQAPGKGLEWVTVIWYDGNNQYYADSVKGRFTISRDNSKNTLYLQMNSLRAEDTAVYYCAREGSWSPDIFDIWGQGTMVTVSS
VL: AIQLTQSPSSLSASVGDRVTITCRASQGISSYLAWYQQKPGKAPKLLIYDASSLESGVPSRFSGSGSGTDFTLTISSLQPEDFATYYCQQFNSYPITFGQGTRLEIKR
notes: also called Ex. 3
B2: Example 5 antibody comprising SEQ ID NO:33 and SEQ ID NO:34 (antibody, human IgG1, V domains shown)
VH: QVQLVESGGGVVQPGRSLRLSCAASGFTFSCCGMHWVRQAPGKGLEWVAVIWYDGSNKYYADSVKGRFTISRDTSKNTLYLQMNSLRAEDTAVYYCATDSSGSFYEYFQHWGQGTLVTVSS
VL: B1 VL with S30N, Y32A, I96Y, R103K
notes: also called Ex. 5
B3: Example 2 antibody comprising SEQ ID NO:9 and SEQ ID NO:10 (antibody, human IgG1, V domains shown)
VH: B1 VH with M11V, Y32F, T49A, N56S, Q58E, I70T
VL: B1 VL with A25T, S30R, Y32A, K39N, I96V
notes: also called Ex. 2
B4: Example 1 antibody comprising SEQ ID NO:1 and SEQ ID NO:2 (human IL-4 specific monoclonal antibody) (antibody, human IgG1, V domains shown)
VH: B1 VH with M11V, L29F, G33A, V50F, Y53D, N56S, N57F, Q58K, D62E
VL: B1 VL with S31R, Y32A
notes: also called Ex. 1; mAb as defined by CDRs as described in claim 2a)
B5: Example 4 antibody comprising SEQ ID NO:25 and SEQ ID NO:26 (antibody, human IgG1, V domains shown)
VH: QVQLVQSGAEVKKPGSSVKVSCKASGDTFSSYAISWVRQAPGQGFEWMGGIIPVIGTVNYEERFQDRVTITADNSTSTAYMELTSLRSEDTAVYFCGREEGFLDYWGQGTLVTVSS
VL: AIQLTQSPSSLSASVGDRVTITCRASQGISSALAWYQQKPGKAPKLLIYDASSLESGVPSRFSGSGSGTDFTLTISSLQPEDFATYYCQQFNSYPLLTFGGGTKVEIKR
notes: also called Ex. 4

Each binder was assayed against T1, recombinant human interleukin-4 (assay: SPR (BIAcore 2000), mAb captured on anti-human IgG CM-5 chip, rhIL-4 as analyte).
Method: Affinity measurements of human mAbs of the present invention are carried on a BIAcore™ 2000 instrument. […] A subsequent application of rhIL-4 results in a further change of the refractory properties, which allows determination of the association rate (Kₒₙ, on rate) as well as the dissociation rate (Koff, off rate) and the […] of these two, the affinity (Kd, dissociation constant, given in pM), according to the BIAevaluation 3.0 software.
In the case of B1, the Kd is reported as 0.089 nM.
Binder B2 has a Kd of 0.084 nM.
With B3 the Kd was 0.059 nM.
Binder B4 has a Kd of 0.043 nM.
B5 was tested, and the Kd was 0.066 nM.

The binders below were run against T1, recombinant human interleukin-4 (assay: cell-based or functional assay).
With B1 the “BAF cell proliferation IC50” value was 0.084 nM, the “IL-4 induced CD23 IC50” value was 0.873 nM and the “IL-4 induced IgE IC50” value was 7.81 nM.
For B2, the “BAF cell proliferation IC50” value was 0.218 nM, the “IL-4 induced CD23 IC50” value was 2.83 nM and the “IL-4 induced IgE IC50” value was 9.94 nM.
With B3 the “BAF cell proliferation IC50” value was 0.05 nM, the “IL-4 induced CD23 IC50” value was 0.463 nM and the “IL-4 induced IgE IC50” value was 5.34 nM.
For B4, the “BAF cell proliferation IC50” value was 0.03 nM, the “IL-4 induced CD23 IC50” value was 0.334 nM and the “IL-4 induced IgE IC50” value was 2.81 nM.
For B5, the “BAF cell proliferation IC50” value was 0.688 nM, the “IL-4 induced CD23 IC50” value was 0.848 nM and the “IL-4 induced IgE IC50” value was 7.57 nM.
